Data taken from patent US20170066831A1 (Janssen / Centocor, published 2017).
Substitutions are numbered along the chain they refer to.

T1: human ST2L extracellular domain with C-terminal His6 tag (human, UniProt Q01638 19-328)
T1 construct: also called huST2L-ECD; ST2L-ECD
T1 sequence: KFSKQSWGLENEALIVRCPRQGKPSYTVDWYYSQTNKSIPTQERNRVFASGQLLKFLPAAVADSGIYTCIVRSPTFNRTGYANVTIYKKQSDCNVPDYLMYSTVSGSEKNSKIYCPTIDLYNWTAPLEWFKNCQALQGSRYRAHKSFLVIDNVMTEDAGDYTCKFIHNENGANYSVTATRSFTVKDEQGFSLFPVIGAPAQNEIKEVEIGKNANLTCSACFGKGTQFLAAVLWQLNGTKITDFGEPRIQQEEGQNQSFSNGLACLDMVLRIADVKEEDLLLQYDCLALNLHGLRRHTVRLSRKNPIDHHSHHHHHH

T2: human ST2L, full length, on cells (human, UniProt Q01638 19-556)
T2 sequence: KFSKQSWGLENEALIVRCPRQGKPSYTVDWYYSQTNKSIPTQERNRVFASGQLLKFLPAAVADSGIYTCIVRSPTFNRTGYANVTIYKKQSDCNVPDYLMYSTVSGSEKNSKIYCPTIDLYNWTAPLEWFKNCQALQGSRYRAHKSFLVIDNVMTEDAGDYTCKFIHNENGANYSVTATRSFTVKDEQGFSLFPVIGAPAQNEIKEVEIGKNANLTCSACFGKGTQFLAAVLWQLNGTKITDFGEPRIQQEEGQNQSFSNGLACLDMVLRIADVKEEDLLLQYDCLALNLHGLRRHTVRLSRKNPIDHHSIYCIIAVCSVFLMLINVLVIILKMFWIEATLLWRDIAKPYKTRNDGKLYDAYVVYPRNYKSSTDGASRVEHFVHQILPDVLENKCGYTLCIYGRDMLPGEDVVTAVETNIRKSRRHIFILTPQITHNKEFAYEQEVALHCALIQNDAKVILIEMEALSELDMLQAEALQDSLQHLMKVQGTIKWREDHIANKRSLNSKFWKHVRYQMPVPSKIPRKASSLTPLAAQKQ

T3: cynomolgus (Macaca fascicularis) ST2L extracellular domain with C-terminal His6 tag (Macaca fascicularis (cynomolgus), UniProt Q01638 19-321 (human entry))
T3 construct: also called cyno ST2L-ECD; cynoST2L-ECD
T3 chain: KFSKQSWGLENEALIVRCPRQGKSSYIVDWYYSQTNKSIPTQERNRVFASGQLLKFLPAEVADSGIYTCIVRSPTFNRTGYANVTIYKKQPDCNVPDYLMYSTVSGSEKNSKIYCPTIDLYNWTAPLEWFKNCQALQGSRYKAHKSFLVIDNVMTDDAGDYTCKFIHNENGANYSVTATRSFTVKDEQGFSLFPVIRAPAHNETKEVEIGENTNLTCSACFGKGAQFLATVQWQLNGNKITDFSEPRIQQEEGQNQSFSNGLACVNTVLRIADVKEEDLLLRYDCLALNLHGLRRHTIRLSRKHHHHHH

B1: STLM220 (antibody, V domains shown)
VH: EVQLLESGGGLVQPGGSLRLSCAASGFTFSFYDMFWVRQAPGKGLEWVSDIRGEGGGTAYADSVKGRFTISRDNSKNTLYLQMNSLRAEDTAVYYCARDPWSTEGSFFVLDYWGQGTLVTVSS
VL: EIVLTQSPATLSLSPGERATLSCRASQSVDDDLAWYQQKPGQAPRLLIYDASNRATGIPARFSGSGSGTDFTLTISSLEPEDFAVYYCQQYIGAPITFGQGTKVEIK
notes: frameworks VH3-23 / Vk-L6
B2: STLM103 (antibody, V domains shown)
VH: B1 VH with D50S, G57R, A59D
VL: B1 VL
notes: frameworks VH3-23 / Vk-L6
B3: STLM107 (antibody, V domains shown)
VH: B1 VH with F31D, D33A, D50A, R52E, G57E, A59N
VL: B1 VL
notes: frameworks VH3-23 / Vk-L6
B4: STLM108 (antibody, V domains shown)
VH: B1 VH with F31I, F35I, D50T, R52K, A59Y
VL: B1 VL
notes: frameworks VH3-23 / Vk-L6
B5: STLM123 (antibody, V domains shown)
VH: B1 VH with F31D, D33A, D50A, R52E, G57E, A59N
VL: B1 VL with G93T, I96L
notes: frameworks VH3-23 / Vk-L6
B6: STLM124 (antibody, V domains shown)
VH: B1 VH with F31I, F35I, D50T, R52K, A59Y
VL: B1 VL with G93T, I96L
notes: frameworks VH3-23 / Vk-L6
B7: STLM207 (antibody, V domains shown)
VH: B1 VH with F31S, F35I, D50T, G57T
VL: B1 VL with G93T, I96L
notes: frameworks VH3-23 / Vk-L6
B8: STLM209 (antibody, V domains shown)
VH: B1 VH with F31I, F35I, D50T, A59S
VL: B1 VL with G93T, I96L
notes: frameworks VH3-23 / Vk-L6
B9: STLM213 (antibody, V domains shown)
VH: B1 VH with F35I, D50T, G57D, A59N
VL: B1 VL with G93D, I96L
notes: frameworks VH3-23 / Vk-L6
B10: STLM214 (antibody, V domains shown)
VH: B1 VH with F31S, R52K, G57R
VL: B1 VL with G93D, I96L
notes: frameworks VH3-23 / Vk-L6
B11: STLM215 (antibody, V domains shown)
VH: B1 VH with F31S, D50A, R52A, G57R, A59Y
VL: B1 VL
notes: frameworks VH3-23 / Vk-L6
B12: STLM216 (antibody, V domains shown)
VH: B1 VH with F31S, R52K, G57A, A59N
VL: B1 VL
notes: frameworks VH3-23 / Vk-L6
B13: STLM217 (antibody, V domains shown)
VH: B1 VH with F31V, R52K, G57E, A59S
VL: B1 VL
notes: frameworks VH3-23 / Vk-L6
B14: STLM218 (antibody, V domains shown)
VH: B1 VH with F31V, Y32D, D33S, D50S, R52E, E54N, G57A, A59Y
VL: B1 VL
notes: frameworks VH3-23 / Vk-L6
B15: STLM199 (antibody, V domains shown)
VH: EVQLVQSGAEVKKPGATVKISCKVSAFNIKDDYMHWVQQAPGKGLEWMGRIDPAIGNTEYAEKFQGRVTITADTSTDTAYMELSSLRSEDTAVYYCATGDFYAMDYWGQGTLVTVSS
VL: EIVMTQSPATLSVSPGERATLSCITNTDIDDVIHWYQQKPGQAPRLLIYEGNTLRPGIPARFSGSGSGTEFTLTISSLQSEDFAVYYCLQSDNMLTFGQGTKLEIK
notes: C2494 HFA mAb: VH STLH194 + VL STLL278 (L2)

Tests used:
[1] = target: T1, human ST2L extracellular domain with …; experiment: RLB ELISA: biotinylated IL-33 on coated huST2L-ECD, antibody titrated
Description: 96-well plate was coated with 50 μl of 4 μg/ml human ST2L-ECD (amino acids 19-328 of SEQ ID NO: 1) or 2 μg/ml cyno ST2L-ECD (amino acids 19-321 of SEQ ID NO: 2) having C-terminal His₆ tag in bicarbonate buffer at 4° C. for 16 hrs. All subsequent steps were performed at room temperature. Plate was blocked with 200 μl blocking buffer, and was washed 3 times with 300 μl of wash buffer containing PBS+0.05% Tween. 30 μl of various dilutions of anti-ST2L mAbs were added to the wells and incubated for 1 hour. For human receptor-ligand binding assay 20 μl of biotinylated human IL-33 (residues 112-270 of SEQ ID NO: 3) was added at 100 ng/ml final concentration and incubated for 30 minutes. For cyno receptor-ligand binding assay 20 μl of biotinylated cyno IL-33 (residues 112-269 of SEQ ID NO: 4) was added at 200 ng/ml final concentration and incubated for 30 minutes. The plate was washed 3 times with 300 μl of wash buffer. 50 μl of 0.2 μg/ml Streptavidin-HRP (Jackson Immunoresearch) was added and incubated for 30 min. The plate was washed 3 times with 300 μl of wash buffer containing PBS+0.05% Tween. 50 μl of TMB substrate (EMD Biosciences) was added to each well. Reaction was stopped by the addition of 100 μl of 0.2N Sulfuric Acid. OD450 were measured using Envision plate reader (Perkin Elmer).

[2] = target: T2, human ST2L, full length, on cells; experiment: cell-based or functional assay
[3] = target: T3, cynomolgus (Macaca fascicularis) ST2L …; experiment: SPR, mAb captured, ST2L-ECD in solution
[4] = target: T1, human ST2L extracellular domain with …; experiment: SPR, mAb captured, ST2L-ECD in solution
[5] = target: T3, cynomolgus (Macaca fascicularis) ST2L …; experiment: ProteOn SPR, mAb captured, ST2L-ECD in solution
Description: (§1) The affinities were analyzed by ProteOn. The experiments were performed at 25° C. using ProteOn's PBS-T-E buffer (PBS, 0.005% P20 and 3 mM EDTA) as running buffer. […] Mab capture was followed by injection of ST2L-ECD from 0.024-15 nM (5-fold dilutions) for 4 min (200 μL at 50 μL/min). The dissociation was monitored for 30 minutes for all reaction. Regeneration was performed using two 15 sec pulses of 10 mM glycine pH1.5. The data was fitted to a 1:1 with baseline drift model.
(§2) Association rates for the samples are fast, the langmuir with mass transfer model was used for curve fitting and estimation of Affinity. All of the samples had faster off rates than the parental clone and control Mab. The difference in off rate was the primary contributor to the lower affinity of the HFA variants when compared to the parent antibody.

[6] = target: T1, human ST2L extracellular domain with …; experiment: ProteOn SPR, mAb captured, ST2L-ECD in solution
Description: as §1, §2

| Binder | IC50 [1] [µg/mL] | RGA IC50 [2] [µg/mL] | Kd [3] [nM] | koff [3] [s⁻¹] | kon [3] [M⁻¹ s⁻¹] | Kd [4] [nM] | koff [4] [s⁻¹] | kon [4] [M⁻¹ s⁻¹] | Kd [5] [nM] | koff [5] [s⁻¹] | kon [5] [M⁻¹ s⁻¹] | Kd [6] [nM] | koff [6] [s⁻¹] | kon [6] [M⁻¹ s⁻¹] |
| --- | --- | --- | --- | --- | --- | --- | --- | --- | --- | --- | --- | --- | --- | --- |
| B1 | 0.39 | 0.6 | 0.009 | 0.00014 | 1.6e+07 | 0.016 | 9.53e-05 | 5.8e+06 |  |  |  |  |  |  |
| B2 | 0.47 | 1.92 | 0.031 | 0.000202 | 6.42e+06 | 0.041 | 0.000163 | 3.97e+06 |  |  |  |  |  |  |
| B3 | 0.44 | 1.1 | 0.007 | 0.00065 | 1e+08 | 0.012 | 0.000341 | 2.9e+07 |  |  |  |  |  |  |
| B4 | 0.23 | 2.34 | 0.029 | 0.000598 | 2.05e+07 | 0.097 | 0.000222 | 2.29e+06 |  |  |  |  |  |  |
| B5 | 0.28 | 1.25 | 0.005 | 0.000519 | 1e+08 | 0.015 | 0.000208 | 1.37e+07 |  |  |  |  |  |  |
| B6 | 0.35 | 0.87 | 0.03 | 0.00257 | 8.71e+07 | 0.046 | 0.000756 | 1.65e+07 |  |  |  |  |  |  |
| B7 | 0.36 | 2.3 | 0.021 | 0.00207 | 1e+08 | 0.048 | 0.000395 | 8.33e+06 |  |  |  |  |  |  |
| B8 | 0.32 | 0.97 | 0.009 | 0.000311 | 3.39e+07 | 0.026 | 0.00017 | 6.59e+06 |  |  |  |  |  |  |
| B9 | 0.34 | 0.49 | 0.008 | 0.000124 | 1.64e+07 | 0.014 | 0.000108 | 7.54e+06 |  |  |  |  |  |  |
| B10 | 0.28 | 2.52 | 0.037 | 0.000264 | 7.2e+06 | 0.033 | 0.000299 | 9.16e+06 |  |  |  |  |  |  |
| B11 | 0.29 | 1.3 | 0.01 | 0.000369 | 3.54e+07 | 0.025 | 0.000172 | 6.91e+06 |  |  |  |  |  |  |
| B12 | 0.3 | 1.86 | 0.003 | 0.000264 | 7.89e+07 | 0.016 | 0.000158 | 9.63e+06 |  |  |  |  |  |  |
| B13 | 0.49 | 1.69 | 0.004 | 0.000138 | 3.81e+07 | 0.017 | 0.000126 | 7.27e+06 |  |  |  |  |  |  |
| B14 | 0.42 | 1.33 | 0.018 | 0.000265 | 1.45e+07 | 0.023 | 0.000224 | 9.89e+06 |  |  |  |  |  |  |
| B15 |  |  |  |  |  |  |  |  | 0.0845 | 0.00657 | 7.78e+07 | 0.0414 | 0.000897 | 2.17e+07 |
